Measured values from article PMC6028955.

Molecular target: histone H2A–H2B (from chicken blood histone core octamers) (chicken) (UniProt P02263)
Experiment: ITC; 25 °C, 20 mM HEPES pH 7.5, 200 mM NaCl, 1 mM DTT; histones in the cell at 20–30 μM, SSRP1 variants in the syringe at 10 times that concentration

Chain of DdSSRP1 containing only the ID1 region (residues 479–527) (Q54G78 479-527): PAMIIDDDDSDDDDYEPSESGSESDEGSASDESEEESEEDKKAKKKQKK
Chain of full-length DdSSRP1 (Q54G78 whole entry): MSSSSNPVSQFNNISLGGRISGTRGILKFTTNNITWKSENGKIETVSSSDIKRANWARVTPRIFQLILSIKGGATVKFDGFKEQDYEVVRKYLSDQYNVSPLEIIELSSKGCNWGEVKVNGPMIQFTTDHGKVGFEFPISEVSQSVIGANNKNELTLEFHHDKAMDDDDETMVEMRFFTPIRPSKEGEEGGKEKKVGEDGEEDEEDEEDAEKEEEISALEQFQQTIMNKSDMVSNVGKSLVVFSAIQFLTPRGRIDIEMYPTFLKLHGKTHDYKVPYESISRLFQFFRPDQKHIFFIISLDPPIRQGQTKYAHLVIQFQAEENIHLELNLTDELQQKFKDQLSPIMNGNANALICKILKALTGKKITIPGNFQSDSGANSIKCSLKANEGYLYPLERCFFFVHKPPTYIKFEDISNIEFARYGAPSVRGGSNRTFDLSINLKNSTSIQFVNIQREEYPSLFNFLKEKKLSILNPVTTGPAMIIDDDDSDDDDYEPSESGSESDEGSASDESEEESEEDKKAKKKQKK

| Kd [nM] | Substance |
| --- | --- |
| 190 | DdSSRP1 containing only the ID1 region (residues 479–527) (from UniProt Q54G78 479-527) (domain or fragment) |
| 310 | full-length DdSSRP1 (from UniProt Q54G78 1-527) (natural protein) |
